# Assay results reported in patent US20230091471A1 (APELLIS PHARMACEUTICALS, published 2023).
# Columns and labels:
# [1] = biological target: T1, human complement component C3 (human, UniProt P01024 23-1663); experiment: cell-based or functional assay
# [2] = biological target: T1, human complement component C3; experiment: cell-based or functional assay; remark: listed apart in the source
"IC50 (read off the curve); classical pathway C3b deposition ELISA, human plasma [1]",Binder,further results
~600 nM,ICVWQDWGAHRCTK (not fully specified; N-terminal acetyl; 1-methyl-Trp at 4; disulfide Cys2-Cys12; AEEAc after Thr13; Lys15 side chain coupled to linear 40 kD mPEG (NOF SUNBRIGHT ME-400CS); C-terminal amide) [CA28-AEEAc-Lys(mPEG40K-succinyl)],–
~600 nM,ICVWQDWGAHRCTK (not fully specified; N-terminal acetyl; 1-methyl-Trp at 4; disulfide Cys2-Cys12; AEEAc after Thr13; Lys15 side chain coupled to linear 40 kD mPEG (NOF SUNBRIGHT ME-400GS); C-terminal amide) [CA28-AEEAc-Lys-(PEG40k)],–

# Further lines, the binder ahead of its results:
Binder,"IC50 (read off the curve); classical pathway C3b deposition ELISA, human plasma [1]",further results
ICVWQDWGAHRCTK (not fully specified; N-terminal acetyl; 1-methyl-Trp at 4; disulfide Cys2-Cys12; AEEAc after Thr13; Lys15 side chain coupled to linear 40 kD mPEG (NOF SUNBRIGHT ME-400TS); C-terminal amide) [CA28-AEEAc-Lys(mPEG40K-carbonyl)],~600 nM,–
ICVWQDWGAHRCTK (not fully specified; N-terminal acetyl; 1-methyl-Trp at 4; disulfide Cys2-Cys12; AEEAc after Thr13; Lys15 side chain coupled to linear 40 kD mPEG (NOF SUNBRIGHT ME-400HS); C-terminal amide) [CA28-AEEAc-Lys(mPEG40K-hexanoyl)],~600 nM,–
ICVWQDWGAHRCTK (not fully specified; N-terminal acetyl; 1-methyl-Trp at 4; disulfide Cys2-Cys12; AEEAc after Thr13; Lys side chain coupled to one end of a bifunctional linear 40 kD PEG of the GS type (NHS-OCO(CH2)3COO-PEG-CO(CH2)3COO-NHS); C-terminal …) [CA28-2GS-BF],–,"Q1 (Type III cells with high C3d deposition) % Parent, modified Ham's assay, 50 ug/ml [2]: 0.01%; Q2 (Type I and II cells with high C3d deposition) % Parent, modified Ham's assay, 50 ug/ml [2]: 0.01%; Q3 (Type III cells without significant C3d deposition) % Parent, modified Ham's assay, 50 ug/ml [2]: 61.5%; Q4 (Type I and II cells without significant C3d deposition) % Parent, modified Ham's assay, 50 ug/ml [2]: 38.5%"
